Measured values published in paper PMC6643034 (2019).

B5: CXCL13 (ligand)
chain: VLEVYYTSLRCRCVQESSVFIPRRFIDRIQILPRGNGCPRKEIIVWKKNKSIVCVDPQAEWIQRMMEVLRKRSSSTLPVPVFKRKIP
B6: CXCL11 (ligand)
chain: FPMFKRGRCLCIGPGVKAVKVADIEKASIMYPSNNCDKIEVIITLKENKGQRCLNPKSKQARLIIKKVERKNF
B18: CXCL4 (ligand)
chain: EAEEDGDLQCLCVKTTSQVRPRHITSLEVIKAGPHCPTAQLIATLKNGRKICLDLQAPLYKKIIKKLLES

Experiments:
Assay in all cases: BLI
CXCL1 = CXCL1 (human, UniProt P09341 35-107)
CXCL5 = CXCL5 (human)
[1] = target: CXC-motif chemokine ligand 10 (CXCL10) (human, UniProt P02778 22-98)
CXCL13 = target: B5
CXCL3 = CXCL3 (human, UniProt P19876 35-107)
CXCL2 = CXCL2 (human, UniProt P19875 35-107)
CXCL11 = target: B6
CXCL4 = target: B18
CXCL6 = CXCL6 (human)
CXCL7 = target: T1, CXCL7 (human)
T1 chain: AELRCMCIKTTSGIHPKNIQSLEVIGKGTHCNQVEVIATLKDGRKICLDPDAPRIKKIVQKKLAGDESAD

CXCL12 = CXCL12 (human, UniProt P48061 22-93)
P1074_IXORI = P1074_IXORI (Ixodes ricinus, UniProt A0A0K8RDH6 29-96)
CXCL8 = CXCL8 (human)
CXCL8 (human), sequence (chain, as listed by the source): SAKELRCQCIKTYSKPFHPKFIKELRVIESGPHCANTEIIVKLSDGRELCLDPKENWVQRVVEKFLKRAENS

B1: P942 (natural protein)
chain: DGGNQLSGPQSSANSNEAVFCDTNCTQGTDEAWSGCRGDCFCVYVGNSTEGRCMMLSGDFDYSTPGAED
modifications: also: glycosylated
- Kd (CXCL1): 0.00309 µM
- Kd (CXCL5): 0.0211 µM
- Kd [1]: 0.133 µM
- Kd (CXCL13): 0.0395 µM
- Kd (CXCL3): 0.00504 µM
- Kd (CXCL2): 0.00648 µM
- Kd (CXCL11): 0.0124 µM
- Kd (CXCL4): 0.148 µM
- Kd (CXCL6): 0.00728 µM

B2: P1126 (natural protein)
chain: DGGKPQILQRTDKSTDSEWDPQTCPETCIPSKNITCSDGCVCVKLGEEEEGTCFNMTGVDWLGSPSDD
modifications: also: glycosylated
- Kd (CXCL1): 0.0105 µM
- Kd (CXCL5): 0.0121 µM
- Kd [1]: 0.0079 µM
- Kd (CXCL7): 0.00605 µM
- Kd (CXCL3): 0.0133 µM
- Kd (CXCL2): 0.00511 µM
- Kd (CXCL11): 0.394 µM
- Kd (CXCL4): 0.393 µM
- Kd (CXCL6): 0.00912 µM

B3: P1142 (natural protein)
chain: DGGKPQILQRTDHSTDSDWDPQMCPETCNPSKNISCSSECLCVTLGGGDETGTCFNMSGVDWLGHAQASDGHNDGGGASAWSHPQFEKLEHHHHHHHH
modifications: glycosylated (periodic acid–Schiff staining)
- Kd (CXCL1): 0.00461 µM
- Kd (CXCL5): 0.00981 µM
- Kd [1]: 0.00746 µM
- Kd (CXCL7): 0.00183 µM
- Kd (CXCL3): 0.00565 µM
- Kd (CXCL2): 0.00214 µM
- Kd (CXCL11): 0.322 µM
- Kd (CXCL4): 0.381 µM
- Kd (CXCL6): 0.00627 µM

B4: P1124_IXORI (natural protein)
chain: DSKGTSDSQDSTKSIKVDFCETNCTKTDGGWTGCTGDCICVSVGDSIEGRCMDFG
- Kd (CXCL1): 0.00761 µM
- Kd (CXCL5): 0.0264 µM
- Kd (CXCL12): 0.212 µM
- Kd (CXCL13): 0.256 µM
- Kd (CXCL3): 0.00884 µM
- Kd (CXCL2): 0.0138 µM

Binder: B5
- Kd (P1074_IXORI): 0.0958 µM

Binder: B6
- Kd (P1074_IXORI): 0.012 µM

B7: P1078_IXORI (natural protein)
chain: GSKGSSAQQSSHDSIKAEFCETNCTMKTGGKWTQCHGGCFCVHVGNETVGRCIKLDGDYDYPSSKHEE
- Kd (CXCL1): 0.00635 µM
- Kd (CXCL5): 0.0392 µM
- Kd (CXCL13): 0.255 µM
- Kd (CXCL3): 0.0438 µM
- Kd (CXCL2): 0.0683 µM
- Kd (CXCL11): 0.0167 µM

B8: P1100_IXORI (natural protein)
chain: GSKGSSASQSSDNSVVAKFCDTNCTINEGGKWTECKGGCFCVHVGNETVGRCMKLDGDYDYPSPKPEE
- Kd (CXCL1): 0.0499 µM
- Kd (CXCL5): 0.0508 µM
- Kd [1]: 0.38 µM
- Kd (CXCL3): 0.0559 µM
- Kd (CXCL11): 0.102 µM
- Kd (CXCL6): 0.0152 µM

B9: P675 (natural protein)
chain: GSNQLSGPQSSANSNDAVFCDTNCTQGTDGAWSGCRGDCFCVHVGNSTEGRCIELIGDFDYSTPGAED
modifications: also: glycosylated
- Kd (CXCL1): 0.00999 µM
- Kd (CXCL5): 0.0342 µM
- Kd [1]: 3.12 µM
- Kd (CXCL13): 0.582 µM
- Kd (CXCL3): 0.0357 µM
- Kd (CXCL2): 0.0248 µM
- Kd (CXCL11): 0.00773 µM
- Kd (CXCL4): 0.422 µM

B10: P1134 (natural protein)
chain: NEEVFTVEYCGMNCTQKSDGTWTECSGKNKDCRCYHESDAREGLCLSTEYTDFSQFETPSNSDLEAATPRPRKTLYPVRNPHGPKTRGLGYDKRILRDRVKFLI
modifications: glycosylated (periodic acid–Schiff staining)
- Kd (CXCL1): 0.0273 µM

B11: P1080_IXORI (natural protein)
chain: SAGSKGSSAPQSSGDSVVAEFCDTNCTMKKDGKWTECNGDCFCVHVGNETVGRCMRLDGDYDYTSSKTTRRNKKTRNGLCRLDRNRTTVDYPERNTREP
- Kd (CXCL5): 0.0551 µM
- Kd [1]: 1.26 µM
- Kd (CXCL13): 1.11 µM
- Kd (CXCL3): 0.124 µM
- Kd (CXCL4): 2.31 µM
- Kd (CXCL6): 0.061 µM

B12: P1172_IXORI (natural protein)
chain: FLLKSQLCYCLFGIELIGAGIHALHEDEIFTVDYCGTNCTKQSNGSWTTCPGNCSCYHEDGKTDGFCLSTEYTDFTQFPNLTSEEMDAATPRPE
- Kd (CXCL1): 0.00559 µM
- Kd (CXCL5): 0.0593 µM
- Kd (CXCL8): 0.0267 µM
- Kd (CXCL2): 0.026 µM

B13: Evasin 3 (EVA3) (natural protein)
chain: DGGLVSTIESRTSGDGADNFDVVSCNKNCTSGQNECPEGCFCGLLGQNKKGHCYKIIGNLSGEPPVVRR
modifications: also: glycosylated
- Kd (CXCL1): 0.00573 µM
- Kd (CXCL5): 0.0249 µM
- Kd (CXCL8): 0.00257 µM
- Kd (CXCL3): 0.00737 µM
- Kd (CXCL2): 0.00749 µM
- Kd (CXCL6): 0.00103 µM

B14: P1104 (natural protein)
chain: ESKEASASQGPGKSFKVEFCETNCTENNGVWSGCTGDCICVSVGDSKEGRCMDLGDKVIDTPVAQG
modifications: also: glycosylated
- Kd (CXCL1): 0.0144 µM
- Kd (CXCL5): 0.0245 µM
- Kd (CXCL12): 0.0678 µM
- Kd (CXCL13): 0.22 µM
- Kd (CXCL3): 0.0437 µM
- Kd (CXCL2): 0.0823 µM
- Kd (CXCL6): 0.0343 µM

B15: P1090_IXORI (natural protein)
chain: GSKELSGPESSENSIEAAFCDTNCTEGTDGVWSGCSAGCFCVHVGNSTVGRCMTFNGVD
- Kd (CXCL1): 0.00355 µM
- Kd (CXCL5): 0.043 µM
- Kd [1]: 0.0239 µM
- Kd (CXCL13): 0.0125 µM
- Kd (CXCL3): 0.00767 µM
- Kd (CXCL2): 0.00303 µM
- Kd (CXCL11): 0.00385 µM
- Kd (CXCL6): 0.00282 µM

B16: P1170_IXORI (natural protein)
chain: LGDEDQLFSVEYCGTNCTQQDDGKWTPCSGKNGKCKCYHEDGKRYGLCLYTEYTDFSQYPNPEGSEIENTRPRP
- Kd (CXCL1): 0.0596 µM
- Kd (CXCL8): 0.0123 µM

B17: P1086_IXORI (natural protein)
chain: GSKGQRASQVSETSITAEFCDTSCTQGTDKTWSGCSGDCFCVHVGNDTEGRCMRWDGDYPSAEEEE
- Kd [1]: 0.0187 µM
- Kd (CXCL3): 0.0152 µM

Binder: B18
- Kd (P1074_IXORI): 0.157 µM
